Experimental findings from article PMC3917506 are described below.

This test concerns the target mRFP1-Rac1 (wild type) (human), P63000. As to the kind of experiment: FRET or BRET. Conditions: remark: other sources report otherwise.

B1: Teal-N-WASP, O00401 1-505 (natural protein)
chain: MSSVQQQPPPPRRVTNVGSLLLTPQENESLFTFLGKKCVTMSSAVVQLYAADRNCMWSKKCSGVACLVKDNPQRSYFLRIFDIKDGKLLWEQELYNNFVYNSPRGYFHTFAGDTCQVALNFANEEEAKKFRKAVTDLLGRRQRKSEKRRDPPNGPNLPMATVDIKNPEITTNRFYGPQVNNISHTKEKKKGKAKKKRLTKADIGTPSNFQHIGHVGWDPNTGFDLNNLDPELKNLFDMCGISEAQLKDRETSKVIYDFIEKTGGVEAVKNELRRQAPPPPPPSRGGPPPPPPPPHNSGPPPPPARGRGAPPPPPSRAPTAAPPPPPPSRPSVAVPPPPPNRMYPPPPPALPSSAPSGPPPPPPSVLGVGPVAPPPPPPPPPPPGPPPPPGLPSDGDHQVPTTAGNKAALLDQIREGAQLKKVEQNSRPVSCSGRDALLDQIRQGIQLKSVADGQESTPPTPAPTSGIVGALMEVMQKRSKAIHSSDEDEDEDDEEDFEDDDEWED
B1: the average FRET efficiency E% amounted to 14%.
